Data reported in patent EP1899377B1.

Target: GST-human NOGO-A56 (human) (UniProt Q9NQC3)
Assay: SPR (Biacore T100), reverse format: antibody captured on Protein A, human NOGO 5+6 GST as analyte, 1:1 model; mean (SD) of 5 or 6 runs

Sequence of GST-human NOGO-A56 (human) (Q9NQC3 586-785, form in doubt): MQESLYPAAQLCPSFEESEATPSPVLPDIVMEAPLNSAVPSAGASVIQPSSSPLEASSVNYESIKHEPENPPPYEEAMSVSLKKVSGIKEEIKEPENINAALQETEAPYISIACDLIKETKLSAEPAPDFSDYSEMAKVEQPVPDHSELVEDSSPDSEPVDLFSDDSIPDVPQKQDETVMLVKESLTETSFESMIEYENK

- Kd: 0.42 nM
- koff: 0.000117 s⁻¹
- kon: 285000 M⁻¹ s⁻¹
Substance: 11C7 (chimeric version) (antibody)
